Test results as given in paper PMC6856128 (Scientific Reports, 2019).

Target: the molecule itself
Experiment: SEC

B1: Mycobacterium tuberculosis CysA2 (enzyme)
chain: MARCDVLVSADWAESNLHAPKVVFVEVDEDTSAYDRDHIAGAIKLDWRTDLQDPVKRDFVDAQQFSKLLSERGIANEDTVILYGGNNNWFAAYAYWYFKLYGHEKVKLLDGGRKKWELDGRPLSSDPVSRPVTSYTASPPDNTIRAFRDEVLAAINVKNLIDVRSPDEFSGKILAPAHLPQEQSQRPGHIPGAINVPWSRAANEDGTFKSDEELAKLYADAGLDNSKETIAYCRIGERSSHTWFVLRELLGHQNVKNYDGSWTEYGSLVGAPIELGS
stoichiometry N: 2
